± gives the standard deviation of the averaged measurements.
Tested on: Saccharomyces cerevisiae
Test: protein stability index of tFT-peptide fusion (C-terminal peptide) (PSI (0-1 scale)); higher = more stable (slower turnover)
Settings: genetic background: wild type; temperature: 30 C
Description: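 Multiplexed protein stability (MPS) profiling in S. cerevisiae. Random 12-aa peptides (tFT-X12 library) are fused to the C-terminus of a sfGFP-mCherry tandem fluorescent timer, after mCherry and a GGGS linker. Cells are FACS-sorted into 8 mCherry/sfGFP bins and deep-sequenced. The protein stability index (PSI) is the read-weighted bin average, scaled from 0 (unstable) to 1 (stable). Only peptides with >10 reads are reported; cells were grown at 30 °C in SC-His with glucose.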
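Further: PSI is a weighted mean of sequencing reads over stability bins, variants kept only with over 10 reads, mCherry proximal and sfGFP distal, peptide attached via GGGS linker.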

Row | Sequence | protein stability index
1 | DQRLKKKTVQMK | 0.778 ± 0.076
2 | DQVWGGSEDNTV | 0.76 ± 0.052
3 | DRCLFRFNLWGG | 0.7203 ± 0.0063
4 | DRFPGLILVSFP | 0.73 ± 0.05
5 | DRGKGEKGKKAD | 0.6797 ± 0.0036
6 | DRHVPPASYLAD | 0.6343 ± 0.0057
7 | DRLGDCRKPRPF | 0.657 ± 0.099
8 | DRNGKIGTFKKV | 0.795 ± 0.12
9 | DRNVMNGFTRPG | 0.659 ± 0.034
10 | DRPPPPPRSSPL | 0.753 ± 0.046
11 | DRQGMIGLKYVK | 0.776 ± 0.11
12 | DRRRGVGESSFG | 0.703 ± 0.025
13 | DRWIGLWGGLWV | 0.63 ± 0.018
14 | DRYGVYPIYGKF | 0.6855 ± 0.0054
15 | DSASFAFCCFCD | 0.639 ± 0.023
16 | DSESSLPSLPHT | 0.682 ± 0.015
17 | DSGRRVTLLVFV | 0.594 ± 0.041
18 | DSHRRPGSPPPL | 0.688 ± 0.11
19 | DSILYKKYKQLG | 0.559 ± 0.024
20 | DSMLTYIRSTKD | 0.633 ± 0.007
21 | DSPPMTALITDF | 0.697 ± 0.019
22 | DSPRTFWGPTQK | 0.699 ± 0.055
23 | DSQAEPGLSARL | 0.796 ± 0.059
24 | DSSDIELSTRTL | 0.651 ± 0.027
25 | DSVQALDGRAGI | 0.683 ± 0.046

Row | Sequence | protein stability index
26 | DTDLWFASVFSS | 0.793 ± 0.022
27 | DTNRALMRKSHS | 0.673 ± 0.0088
28 | DVDWVLTLGCLG | 0.647 ± 0.034
29 | DVELTGCCLSRT | 0.696 ± 0.026
30 | DVGGDGDCVVSS | 0.661 ± 0.0024
31 | DVGRDVCEFRDR | 0.677 ± 0.045
32 | DVHPPPPAPPPP | 0.747 ± 0.12
33 | DVKNMVWKTIEL | 0.6746 ± 0.0065
34 | DVLSLFCKFFGV | 0.661 ± 0.075
35 | DVLVHETFLCRL | 0.774 ± 0.016
36 | DVVPYLGYYFFC | 0.578 ± 0.01
37 | DVYDLGLPINMS | 0.698 ± 0.045
38 | DWSHLLTSHAII | 0.703 ± 0.041
39 | EAGGAQGPTGEL | 0.634 ± 0.02
40 | EAQGVEMMGWAV | 0.696 ± 0.025
41 | EARPQAMPGRHP | 0.689 ± 0.024
42 | ECNESSACRNHY | 0.65 ± 0.032
43 | EDKETETSVNQK | 0.6758 ± 0.0059
44 | EDKVHQSSACHQ | 0.707 ± 0.03
45 | EDNRTSEMFVFY | 0.753 ± 0.14
46 | EDSRATNERGRT | 0.704 ± 0.049
47 | EEFTSRAFRISW | 0.744 ± 0.13
48 | EERAGTRGGRGR | 0.743 ± 0.13
49 | EFERWCGLGRFG | 0.744 ± 0.096
50 | EFFVLVHLVDPK | 0.638 ± 0.041

Row | Sequence | protein stability index
51 | EFVFLLSNTFNS | 0.749 ± 0.03
52 | EGAGGVVVEGLG | 0.68 ± 0.028
53 | EGAVGMSGSLGV | 0.668 ± 0.063
54 | EGCGLQRGMGVL | 0.681 ± 0.0096
55 | EGDACCGVDGKR | 0.663 ± 0.13
56 | EGGETDRSLMVV | 0.66 ± 0.014
57 | EGGGWGVGSEVG | 0.694 ± 0.035
58 | EGGMLNAVRPRS | 0.663 ± 0.048
59 | EGGRFTALSSTS | 0.689 ± 0.039
60 | EGGRGYGRGRYG | 0.685 ± 0.051
61 | EGGVERIHKPSS | 0.654 ± 0.061
62 | EGKRGKTGVRRI | 0.743 ± 0.055
63 | EGLRLWGRCCWG | 0.74 ± 0.048
64 | EGPLVRGSGVDV | 0.637 ± 0.043
65 | EGQVGVGWGWVR | 0.786 ± 0.12
66 | EGRRCQGGVWRE | 0.6818 ± 0.0061
67 | EGTIDSGRHSLK | 0.752 ± 0.15
68 | EGTKEKGEKRRR | 0.666 ± 0.065
69 | EGTTRDGERCRT | 0.696 ± 0.0056
70 | EGVSGVSLFRVL | 0.661 ± 0.051
71 | EHCGRGMGSGAA | 0.673 ± 0.012
72 | EHFGFYFIFNLY | 0.58 ± 0.034
73 | EIEYVEPSIPET | 0.702 ± 0.046
74 | EIGWEGLAGRGG | 0.754 ± 0.029
75 | EIKKKNPSTTRR | 0.663 ± 0.01

Row | Sequence | protein stability index
76 | EISKVRGAVDRK | 0.689 ± 0.033
77 | EITLFELWPPGS | 0.78 ± 0.03
78 | EKCCVNSASSFG | 0.646 ± 0.0098
79 | EKKKNTQGIKKK | 0.685 ± 0.011
80 | EKKKRRASREDS | 0.6744 ± 0.0039
81 | EKKKSCIMILRK | 0.701 ± 0.039
82 | EKKKSKGRRKLM | 0.705 ± 0.081
83 | EKKRKKIYGNLK | 0.683 ± 0.13
84 | EKRDKREVRPGK | 0.6626 ± 0.0055
85 | EKRKEKKKRGKE | 0.797 ± 0.16
86 | EKRQNLKPMRTV | 0.686 ± 0.026
87 | EKSKNQKPHAAR | 0.633 ± 0.0088
88 | EKTKEEKKLRTK | 0.647 ± 0.046
89 | EKTKEKKAKKYG | 0.694 ± 0.027
90 | EKYASINSSKPP | 0.671 ± 0.068
91 | EKYSSHPMDTRQ | 0.653 ± 0.013
92 | ELCFFISLVPDF | 0.642 ± 0.007
93 | ELEIKGRRQIKT | 0.666 ± 0.055
94 | ELLKQRTRKRQK | 0.693 ± 0.021
95 | ELNENKKKKEHL | 0.714 ± 0.12
96 | ELRADRTYTGIV | 0.752 ± 0.054
97 | ELTKNRQTVIIS | 0.635 ± 0.035
98 | ELTPCGNNDHAI | 0.644 ± 0.0087
99 | ELVISTGRLQKS | 0.637 ± 0.019
100 | EMTWGSIWPERH | 0.731 ± 0.05

Row | Sequence | protein stability index
101 | ENCDSAEPGTRV | 0.676 ± 0.033
102 | ENHPATICGFYR | 0.767 ± 0.087
103 | ENPSTIDLSARS | 0.656 ± 0.04
104 | ENVGRASDHSLS | 0.679 ± 0.097
105 | EPATEGDSREHW | 0.708 ± 0.024
106 | EPGQWRAASYGF | 0.71 ± 0.024
107 | EPNRIAKYYKKY | 0.686 ± 0.16
108 | EPPELSISALGF | 0.6865 ± 0.0021
109 | EPTGEPKQKKEG | 0.707 ± 0.035
110 | EQGLRRRVFFEV | 0.644 ± 0.013
111 | EQHTKNDQNNEP | 0.664 ± 0.028
112 | ERANMSRGNQTE | 0.687 ± 0.025
113 | EREKKNKKGGCQ | 0.69 ± 0.018
114 | ERGALNRKDTRG | 0.662 ± 0.023
115 | ERGEEGGRERRR | 0.7 ± 0.0073
116 | ERGSGSVPGGRD | 0.649 ± 0.035
117 | ERKEERGREGKR | 0.628 ± 0.031
118 | ERKEPRIQQQTL | 0.67 ± 0.075
119 | ERLSEYYPLIKC | 0.602 ± 0.044
120 | ERMVENNVKGRK | 0.6811 ± 0.0027
121 | ERRKGGEKGKKK | 0.691 ± 0.047
122 | ERSDRLWEVSKG | 0.685 ± 0.035
123 | ERVQTRTTANRD | 0.639 ± 0.059
124 | ERWRVYERYARG | 0.692 ± 0.058
125 | ESDLNDLGQNLN | 0.674 ± 0.058

Row | Sequence | protein stability index
126 | ESGGGGGGGRER | 0.5726 ± 0.0016
127 | ESIGCINIRMRG | 0.694 ± 0.013
128 | ESRARCGEQAIY | 0.641 ± 0.066
129 | ESTNKKKEKKNR | 0.661 ± 0.04
130 | ESVCFRPKCVCK | 0.5929 ± 0.0046
131 | ESVKVTIAKVMK | 0.708 ± 0.016
132 | ETRSDAVVVFTK | 0.694 ± 0.021
133 | ETVLQVRRRVVR | 0.6553 ± 0.0028
134 | EVASMSCPVFLF | 0.652 ± 0.03
135 | EVCAGDDIRYLV | 0.645 ± 0.026
136 | EVCFVWSLGEVL | 0.623 ± 0.019
137 | EVCGSGCGCGLC | 0.74 ± 0.11
138 | EVDGISTRAAVC | 0.63 ± 0.083
139 | EVDKKYRNRKRK | 0.744 ± 0.019
140 | EVFVVHLLGEAS | 0.574 ± 0.064
141 | EVGGGVGGRRLM | 0.636 ± 0.0099
142 | EVGGSVGTIVGS | 0.702 ± 0.11
143 | EVLAVKLYSGIA | 0.648 ± 0.044
144 | EVLQGNHHPRPE | 0.716 ± 0.019
145 | EVSGRCRRPDDQ | 0.679 ± 0.041
146 | EVVCLGKTTLKR | 0.692 ± 0.041
